In the supplement of paper PMC10567573:

B1: CASP6 (parent)
chain: TCADRDNLTRRFSDLGFEVKCFND

Variants of: B1
Assay: protein stability index of a GFP-peptide fusion (GPS, HEK-293T) (PSI 1-6); higher = more stable
Conditions: c terminus: a fixed tail appended
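Note: lentivirally expressed fusions sorted by FACS into six bins by GFP to DsRed ratio, PSI derived from sequencing read proportions per bin multiplied by bin number.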

Row | Variant | protein stability index
1 | TYADRDNLTRRFSDLGFEVKCFND [C2Y] | 3.23
2 | TWADRDNLTRRFSDLGFEVKCFND [C2W] | 2.36
3 | TLADRDNLTRRFSDLGFEVKCFND [C2L] | 3.25
4 | TAADRDNLTRRFSDLGFEVKCFND [C2A] | 4.04
5 | TIADRDNLTRRFSDLGFEVKCFND [C2I] | 3.35
6 | TKADRDNLTRRFSDLGFEVKCFND [C2K] | 3.51
7 | TRADRDNLTRRFSDLGFEVKCFND [C2R] | 3.74
8 | TEADRDNLTRRFSDLGFEVKCFND [C2E] | 4.84
9 | TGADRDNLTRRFSDLGFEVKCFND [C2G] | 3.47
10 | TTADRDNLTRRFSDLGFEVKCFND [C2T] | 3.54
11 | TQADRDNLTRRFSDLGFEVKCFND [C2Q] | 3.43
12 | THADRDNLTRRFSDLGFEVKCFND [C2H] | 3.71
13 | TVADRDNLTRRFSDLGFEVKCFND [C2V] | 3.93
14 | TSADRDNLTRRFSDLGFEVKCFND [C2S] | 3.88
15 | TDADRDNLTRRFSDLGFEVKCFND [C2D] | 3.81
16 | TFADRDNLTRRFSDLGFEVKCFND [C2F] | 3.16
17 | TNADRDNLTRRFSDLGFEVKCFND [C2N] | 4.32
18 | TPADRDNLTRRFSDLGFEVKCFND [C2P] | 4.04
19 | TCADRCNLTRRFSDLGFEVKCFND [D6C] | 2.43
20 | TCADRPNLTRRFSDLGFEVKCFND [D6P] | 3.68
21 | TCADRSNLTRRFSDLGFEVKCFND [D6S] | 3.01
22 | TCADRTNLTRRFSDLGFEVKCFND [D6T] | 3.2
23 | TCADRGNLTRRFSDLGFEVKCFND [D6G] | 3.47
24 | TCADRMNLTRRFSDLGFEVKCFND [D6M] | 3.09

Row | Variant | protein stability index
25 | TCADRQNLTRRFSDLGFEVKCFND [D6Q] | 3.44
26 | TCADRWNLTRRFSDLGFEVKCFND [D6W] | 2.09
27 | TCADRRNLTRRFSDLGFEVKCFND [D6R] | 3.16
28 | TCADRENLTRRFSDLGFEVKCFND [D6E] | 3.56
29 | TCADRHNLTRRFSDLGFEVKCFND [D6H] | 3.08
30 | TCADRVNLTRRFSDLGFEVKCFND [D6V] | 2.38
31 | TCADRLNLTRRFSDLGFEVKCFND [D6L] | 3.06
32 | TCADRNNLTRRFSDLGFEVKCFND [D6N] | 2.29
33 | TCADRKNLTRRFSDLGFEVKCFND [D6K] | 2.75
34 | TCADRINLTRRFSDLGFEVKCFND [D6I] | 2.96
35 | TCADRFNLTRRFSDLGFEVKCFND [D6F] | 2.51
36 | TCADRYNLTRRFSDLGFEVKCFND [D6Y] | 2.44
37 | TCADRANLTRRFSDLGFEVKCFND [D6A] | 2.76
38 | TCADDDNLTRRFSDLGFEVKCFND [R5D] | 4.21
39 | TCADKDNLTRRFSDLGFEVKCFND [R5K] | 3.77
40 | TCADLDNLTRRFSDLGFEVKCFND [R5L] | 3.5
41 | TCADSDNLTRRFSDLGFEVKCFND [R5S] | 3.8
42 | TCADCDNLTRRFSDLGFEVKCFND [R5C] | 2.65
43 | TCADQDNLTRRFSDLGFEVKCFND [R5Q] | 3.44
44 | TCADEDNLTRRFSDLGFEVKCFND [R5E] | 3.58
45 | TCADMDNLTRRFSDLGFEVKCFND [R5M] | 3.6
46 | TCADPDNLTRRFSDLGFEVKCFND [R5P] | 3.98
47 | TCADADNLTRRFSDLGFEVKCFND [R5A] | 4.37
48 | TCADVDNLTRRFSDLGFEVKCFND [R5V] | 3.5

Row | Variant | protein stability index
49 | TCADNDNLTRRFSDLGFEVKCFND [R5N] | 3.33
50 | TCADGDNLTRRFSDLGFEVKCFND [R5G] | 3.64
51 | TCADHDNLTRRFSDLGFEVKCFND [R5H] | 2.86
52 | TCADIDNLTRRFSDLGFEVKCFND [R5I] | 2.71
53 | TCADFDNLTRRFSDLGFEVKCFND [R5F] | 2.43
54 | TCADTDNLTRRFSDLGFEVKCFND [R5T] | 3.48
55 | TCADWDNLTRRFSDLGFEVKCFND [R5W] | 2.62
56 | TCADYDNLTRRFSDLGFEVKCFND [R5Y] | 2.92
57 | TCVDRDNLTRRFSDLGFEVKCFND [A3V] | 3.52
58 | TCEDRDNLTRRFSDLGFEVKCFND [A3E] | 3.65
59 | TCKDRDNLTRRFSDLGFEVKCFND [A3K] | 3.7
60 | TCSDRDNLTRRFSDLGFEVKCFND [A3S] | 3.64
61 | TCMDRDNLTRRFSDLGFEVKCFND [A3M] | 3.45
62 | TCTDRDNLTRRFSDLGFEVKCFND [A3T] | 3.63
63 | TCQDRDNLTRRFSDLGFEVKCFND [A3Q] | 4.01
64 | TCNDRDNLTRRFSDLGFEVKCFND [A3N] | 3.38
65 | TCWDRDNLTRRFSDLGFEVKCFND [A3W] | 3.21
66 | TCGDRDNLTRRFSDLGFEVKCFND [A3G] | 3.38
67 | TCYDRDNLTRRFSDLGFEVKCFND [A3Y] | 2.9
68 | TCDDRDNLTRRFSDLGFEVKCFND [A3D] | 3.96
69 | TCHDRDNLTRRFSDLGFEVKCFND [A3H] | 2.98
70 | TCCDRDNLTRRFSDLGFEVKCFND [A3C] | 2.84
71 | TCLDRDNLTRRFSDLGFEVKCFND [A3L] | 3.14
72 | TCFDRDNLTRRFSDLGFEVKCFND [A3F] | 2.52

Row | Variant | protein stability index
73 | TCPDRDNLTRRFSDLGFEVKCFND [A3P] | 4.03
74 | TCRDRDNLTRRFSDLGFEVKCFND [A3R] | 2.97
75 | TCIDRDNLTRRFSDLGFEVKCFND [A3I] | 3.21
76 | TCAWRDNLTRRFSDLGFEVKCFND [D4W] | 3.54
77 | TCAERDNLTRRFSDLGFEVKCFND [D4E] | 3.74
78 | TCARRDNLTRRFSDLGFEVKCFND [D4R] | 2.95
79 | TCAYRDNLTRRFSDLGFEVKCFND [D4Y] | 2.44
80 | TCAIRDNLTRRFSDLGFEVKCFND [D4I] | 2.24
81 | TCACRDNLTRRFSDLGFEVKCFND [D4C] | 1.58
82 | TCAKRDNLTRRFSDLGFEVKCFND [D4K] | 3.37
83 | TCAARDNLTRRFSDLGFEVKCFND [D4A] | 2.61
84 | TCAVRDNLTRRFSDLGFEVKCFND [D4V] | 3.05
85 | TCATRDNLTRRFSDLGFEVKCFND [D4T] | 2.64
86 | TCAGRDNLTRRFSDLGFEVKCFND [D4G] | 3.28
87 | TCAMRDNLTRRFSDLGFEVKCFND [D4M] | 2.08
88 | TCANRDNLTRRFSDLGFEVKCFND [D4N] | 3.17
89 | TCAFRDNLTRRFSDLGFEVKCFND [D4F] | 2.78
90 | TCASRDNLTRRFSDLGFEVKCFND [D4S] | 3.02
91 | TCAPRDNLTRRFSDLGFEVKCFND [D4P] | 2.75
92 | TCAHRDNLTRRFSDLGFEVKCFND [D4H] | 2.96
93 | TCALRDNLTRRFSDLGFEVKCFND [D4L] | 2.21
94 | TCAQRDNLTRRFSDLGFEVKCFND [D4Q] | 3.36
